# Results: PMC8862428, “Modeling the stimulation by glutathione of the steady state kinetics of an adenosine triphosphate binding cassette transporter” (Protein Science : A Publication of the Protein Society, 2021)
# B1: NaAtm1 (Novosphingobium aromaticivorans DSM 12444) (protein)
# chain: MPPETATNPKDARHDGWQTLKRFLPYLWPADNAVLRRRVVGAILMVLLGKATTLALPFAYKKAVDAMTLGGGAQPALTVALAFVLAYALGRFSGVLFDNLRNIVFERVGQDATRHLAENVFARLHKLSLRFHLARRTGEVTKVIERGTKSIDTMLYFLLFNIAPTVIELTAVIVIFWLNFGLGLVTATILAVIAYVWTTRTITEWRTHLREKMNRLDGQALARAVDSLLNYETVKYFGAESREEARYASAARAYADAAVKSENSLGLLNIAQALIVNLLMAGAMAWTVYGWSQGKLTVGDLVFVNTYLTQLFRPLDMLGMVYRTIRQGLIDMAEMFRLIDTHIEVADVPNAPALVVNRPSVTFDNVVFGYDRDREILHGLSFEVAAGSRVAIVGPSGAGKSTIARLLFRFYDPWEGRILIDGQDIAHVTQTSLRAALGIVPQDSVLFNDTIGYNIAYGRDGASRAEVDAAAKGAAIADFIARLPQGYDTEVGERGLKLSGGEKQRVAIARTLVKNPPILLFDEATSALDTRTEQDILSTMRAVASHRTTISIAHRLSTIADSDTILVLDQGRLAEQGSHLDLLRRDGLYAEMWARQAAESAEVSEAAE
# notes: His-tag (NiNTA) purified from E. coli BL21-gold (DE3); 135 kDa transporter (homodimer); in DDM/C12E8 detergent, MSP1D1/POPC nanodiscs or proteoliposomes
# Substrate: Nc1ncnc2c1ncn2[C@@H]1O[C@H](COP(=O)(O)OP(=O)(O)OP(=O)(O)O)[C@@H](O)[C@H]1O
# Assay: molybdate phosphate-release ATPase assay, global fit to nonessential activator model
# Type: biochemical, Novosphingobium aromaticivorans
# Details: nanodiscs (MSP1D1/POPC), basal ATPase, constant for transporter without GSSG, Mg complex of ATP, 100 mM NaCl, 20 mM Tris pH 7.5, 37 °C
# Text: molybdate phosphate-release ATPase assay, global fit to nonessential activator model on NaAtm1
protein,measurement,value
B1,Km,1410 ± 80 µM
same,kcat,0.531 ± 0.0173 s⁻¹
